# Measured values published in the supplement of paper PMC10567573.
# B1: C10orf62 (parent)
# chain: MLWVQRKRRRKETSECPSDKDKSP
# Variants of: B1
# Assay: protein stability index of a GFP-peptide fusion (GPS, HEK-293T) (PSI 1-6); higher = more stable
# Conditions: c terminus: a fixed tail appended
# 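Further: lentivirally expressed fusions sorted by FACS into six bins by GFP to DsRed ratio, PSI derived from sequencing read proportions per bin multiplied by bin number.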
row,Variant,protein stability index
1,MLWVQRKRRRKETSECPSDKAKSP [D21A],2.64
2,MLWVQRKRRRKETSECPSDKKKSP [D21K],4.07
3,MLWVQRKRRRKETSECPSDKMKSP [D21M],2.5
4,MLWVQRKRRRKETSECPSDKHKSP [D21H],2.28
5,MLWVQRKRRRKETSECPSDKNKSP [D21N],3.44
6,MLWVQRKRRRKETSECPSDKQKSP [D21Q],2.87
7,MLWVQRKRRRKETSECPSDKDLSP [K22L],3.2
8,MLWVQRKRRRKETSECPSDKDGSP [K22G],2.97
9,MLWVQRKRRRKETSECPSDKDVSP [K22V],3.63
10,MLWVQRKRRRKETSECPSDKDPSP [K22P],3.58
11,MLWVQRKRRRKETSECPSDKDFSP [K22F],2.66
12,MLWVQRKRRRKETSECPSDKDYSP [K22Y],3.12
13,MLWVQRKRRRKETSECPSDKDCSP [K22C],2.32
14,MLWVQRKRRRKETSECPSQKDKSP [D19Q],2.65
15,MLWVQRKRRRKETSECPSCKDKSP [D19C],2.76
16,MLWVQRKRRRKETSECPSSKDKSP [D19S],2.37
17,MLWVQRKRRRKETSECPSPKDKSP [D19P],2.61
18,MLWVQRKRRRKETSECPSWKDKSP [D19W],1.65
19,MLWVQRKRPRKETSECPSDKDKSP [R9P],2.26
20,MLWVQRKRGRKETSECPSDKDKSP [R9G],3.2
21,MLWVQRKRYRKETSECPSDKDKSP [R9Y],3.75
22,MLWVQRKRRRKETSECPSDKDKSA [P24A],3.72
23,MLWVQRKRRRKETSECPSDKDKSY [P24Y],2.57
24,MLWVQRKRRRKETSECPSDKDKSV [P24V],2.95

row,Variant,protein stability index
1,MLWVQRKRRRKETSECPSDKDKSI [P24I],2.35
2,MLWVQRKRRRKETSECPSDKDKSC [P24C],3.2
3,MLWVQRKRRRKMTSECPSDKDKSP [E12M],2.67
4,MLWVQRKRRRKRTSECPSDKDKSP [E12R],3.7
5,MLWVQRKRRRKGTSECPSDKDKSP [E12G],2.49
6,MLWVQRIRRRKETSECPSDKDKSP [K7I],1.95
7,MLWVQRSRRRKETSECPSDKDKSP [K7S],3.85
8,MLWVQRWRRRKETSECPSDKDKSP [K7W],2.49
9,MLWVQRRRRRKETSECPSDKDKSP [K7R],3.29
10,MLWVQRKRRRKETSECMSDKDKSP [P17M],3.44
11,MLWVQRKRRRKETSECASDKDKSP [P17A],4.1
12,MLWVQRKRRRKETSECFSDKDKSP [P17F],2.51
13,MLWVQRKRRRKETSECNSDKDKSP [P17N],3.23
14,MLWVQRKRRRKETSECYSDKDKSP [P17Y],2.27
15,MLWVCRKRRRKETSECPSDKDKSP [Q5C],2.61
16,MLWVPRKRRRKETSECPSDKDKSP [Q5P],3.11
17,MLWVHRKRRRKETSECPSDKDKSP [Q5H],2.97
18,MLWVDRKRRRKETSECPSDKDKSP [Q5D],4.23
19,MLWVFRKRRRKETSECPSDKDKSP [Q5F],2.67
20,MLWVARKRRRKETSECPSDKDKSP [Q5A],3.98
21,MLWVQRKTRRKETSECPSDKDKSP [R8T],2.95
22,MLWVQRKRRRKEDSECPSDKDKSP [T13D],2.3
23,MLWVQRKRRRKEYSECPSDKDKSP [T13Y],2.07
24,MLTVQRKRRRKETSECPSDKDKSP [W3T],4.73

row,Variant,protein stability index
1,MLYVQRKRRRKETSECPSDKDKSP [W3Y],2.77
2,MLKVQRKRRRKETSECPSDKDKSP [W3K],4.18
3,MLHVQRKRRRKETSECPSDKDKSP [W3H],4.31
4,MLWVQRKRRRKETSECPSDMDKSP [K20M],3.38
5,MLWVQRKRRRKETSECPSDNDKSP [K20N],4.29
6,MLWVQRKRRRKETSECPSDQDKSP [K20Q],2.46
7,MLWVQRKRRRKETSECPSDCDKSP [K20C],3.52
8,MLWVQRKRRRKETSECPSDFDKSP [K20F],2.12
9,MLWVQRKRRRKETSECPSDSDKSP [K20S],2.73
10,MLWVQRKRRRKETSECPSDYDKSP [K20Y],3.92
11,MLWVQRKRRRKETSECPIDKDKSP [S18I],2.41
12,MLWVQRKRRRKETSECPNDKDKSP [S18N],2.83
13,MLWVQRKRRRKETSECPWDKDKSP [S18W],2.63
14,MLWVQRKRRRKETSECPCDKDKSP [S18C],2.77
15,MLWVQRKRRQKETSECPSDKDKSP [R10Q],3.12
16,MLWVQRKRRPKETSECPSDKDKSP [R10P],4.27
17,MLWVQRKRRWKETSECPSDKDKSP [R10W],2.89
18,MLWVQRKRRLKETSECPSDKDKSP [R10L],2.78
19,TLWVQRKRRRKETSECPSDKDKSP [M1T],3.65
20,CLWVQRKRRRKETSECPSDKDKSP [M1C],3.06
21,LLWVQRKRRRKETSECPSDKDKSP [M1L],2.3
22,WLWVQRKRRRKETSECPSDKDKSP [M1W],2.83
23,KLWVQRKRRRKETSECPSDKDKSP [M1K],3.53
24,FLWVQRKRRRKETSECPSDKDKSP [M1F],2.98

row,Variant,protein stability index
1,RLWVQRKRRRKETSECPSDKDKSP [M1R],2.59
2,MLWVQLKRRRKETSECPSDKDKSP [R6L],3.11
3,MLWVQWKRRRKETSECPSDKDKSP [R6W],3.21
4,MLWVQEKRRRKETSECPSDKDKSP [R6E],4.01
5,MLWVQCKRRRKETSECPSDKDKSP [R6C],2.27
6,MLWVQQKRRRKETSECPSDKDKSP [R6Q],3.27
7,MLWFQRKRRRKETSECPSDKDKSP [V4F],2.94
8,MLWKQRKRRRKETSECPSDKDKSP [V4K],3.56
9,MLWWQRKRRRKETSECPSDKDKSP [V4W],2.57
10,MLWNQRKRRRKETSECPSDKDKSP [V4N],3.87
11,MLWHQRKRRRKETSECPSDKDKSP [V4H],3.86
12,MLWPQRKRRRKETSECPSDKDKSP [V4P],3.11
13,MLWCQRKRRRKETSECPSDKDKSP [V4C],3.91
14,MLWYQRKRRRKETSECPSDKDKSP [V4Y],2.71
15,MLWTQRKRRRKETSECPSDKDKSP [V4T],2.73
16,MLWVQRKRRRKETSECPSDKDKCP [S23C],3.15
17,MLWVQRKRRRKETSECPSDKDKWP [S23W],1.92
18,MLWVQRKRRRKETSICPSDKDKSP [E15I],1.92
19,MLWVQRKRRRKETSHCPSDKDKSP [E15H],2.92
20,MLWVQRKRRRKETSVCPSDKDKSP [E15V],3.29
21,MLWVQRKRRRKETSMCPSDKDKSP [E15M],2.24
22,MLWVQRKRRRKETSKCPSDKDKSP [E15K],2.74
